# Values of other authors in PMC3197213.
# Target: syntaxin-1 SNARE motif (Rattus norvegicus) (UniProt P32851)
# Sequence (P32851 191-253): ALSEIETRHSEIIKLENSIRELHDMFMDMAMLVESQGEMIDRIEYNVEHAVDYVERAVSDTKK
substance,measurement,value
Munc13-1 MUN domain (from UniProt Q62768),Kd,46 µM
